Source: publication PMC10504544, “1-deoxy-D-xylulose-5-phosphate synthase from Pseudomonas aeruginosa and Klebsiella pneumoniae reveals conformational changes upon cofactor binding” (The Journal of Biological Chemistry, 2023)

Experiments:
[1] = test system: CC(=O)C(=O)O; assay: steady-state kinetics (Km), IspC-coupled assay; assay type: biochemical, Klebsiella pneumoniae; settings: ThDP, Mg2+
[2] = test system: O=CC(O)COP(=O)(O)O; assay: steady-state kinetics (Km), IspC-coupled assay; assay type: biochemical, Klebsiella pneumoniae; settings: ThDP, Mg2+
[3] = test system: Cc1ncc(C[n+]2csc(CCO[P@](=O)(O)OP(=O)(O)O)c2C)c(N)n1; assay: steady-state kinetics (Km); assay type: biochemical, Klebsiella pneumoniae; settings: Mg2+ active site; diphosphate in asparagine-rich region with H bond from Ser52; varied: cofactor
[4] = test system: Cc1ncc(C[n+]2csc(CCO[P@](=O)(O)OP(=O)(O)O)c2C)c(N)n1; assay: purified protein; assay type: biochemical, Pseudomonas aeruginosa; settings: varied: cofactor

| Substance | Km [1] [µM] | Km [2] [µM] | Km [3] [µM] | Km [4] [µM] |
| --- | --- | --- | --- | --- |
| 1-deoxy-D-xylulose-5-phosphate synthase (kpDXPS) (Klebsiella pneumoniae subsp. pneumoniae MGH 78578; DEL197-240/INS196GGGGGG) | 113 ± 34 | 170 ± 43 | 0.11 ± 0.017 | – |
| 1-deoxy-D-xylulose-5-phosphate synthase (paDXPS) (Pseudomonas aeruginosa LESB58; DEL206-245/INS205GGGGGG) | – | – | – | 0.0965 ± 0.014 |
